Biological target: Light-Harvesting Complex II (LHCII) (spinach)
Test: native gel or EMSA

- stoichiometry N: 3
Substance: Light-Harvesting Complex II (LHCII)
